Measured values taken from the DeepSol protein solubility set.

assay: soluble on expression in E. coli; label from the status in PepcDB or PDB records

Sequence | soluble on expression in E. coli
MKSCRSCKENPEVQRKRAEKPWRRAPKAKSEVEKHGIGPPDSDSGEEISFPWYNVTGKMLVVGMHVEIKRSDGRIHGAVIAEVKSNGRFMVEWYEKGETKGKESSLEELLTLNPSLQAPKPTPPPQPPQKTLQASTAVNRQNGIHAQSMILDDEDTFLLDHINMIPAKGASANKRPTGAFTQHVPVRMAPPSEKPLPTRRAPSPKEDAAPAPKSTRTTAAFKPDLDSTAITVPKHTARRTVVVAPAPAPVPAPPIANMTSQRAPSPVARVPSPKNVPRSYPQQDVQPSNGNFAFAEMIRNYRAQIDYRPLSMFDGVNENRISVCVRKRPLNKKELTKAEVDVITIPSRDITILHQPQTRVDLTKYLDNQKFRFDYSFDEYANNELVYRFTAAPLVKTVFDNGTATCFAYGQTGSGKTHTMGGDFSGKKQNASMGIYALTARDVFRMLEQPQYRRKDLSVHCAFFEIYGTKTYDLLNDKAELRVLEDKMQKVQVVGLKEEQAHNEQDVLELINKGTLVRTAGTTSANANSSRSHAIFQIILRQGKKVWGKFSLIDLAGNERGQDTRECDRDTRKEGANINTSLLALKECIRGMARNSSHVPFRQSKLTMVLRDSFIGEKSRTVMISMISPGISSSDHTLNTLRYADRVKEMGTDGSGEATPIRDEELFLPPSADKSDEEYDEMVEKQEHRRVAVDHVRNLKDMSEKIIRETTIVLSNEPSAAQKAECLAKLDQLAQIVSNTRVAVENV | soluble
MGSDKIHHHHHHMDAVQLKSFVAVAHEGNLTQAAKRLFLSQPAVSAQIKALEEYVGTPLFRRTGKGMVLTRAGEILLPEAESLLQYKHKLEHFAKTLAGDYSEETSLGIIHPIDSAKLVALTDNIGQTAPKTRLHIQYGMSGEILSRIQHKTLHGGFILGNAAQRGIRSVFLQNLTYALICPQSQYPHLTRSLPQSLQECVWIEMSGVSGSRKHLHQFWRSNRLSPKKQILCDYPQTIIDLVAGGIGVAMVPGNKAEAAAKEGAGVAIIESCRHSMPLNFIYAEEYEDNPHVSLLLECIEKVWGVQAVQPPVVSDN | not soluble
MEIKGESMQKSKFRRICVFCGSSQGKKSSYQDAAVDLGNELVSRNIDLVYGGGSIGLMGLVSQAVHDGGRHVIGIIPKTLMPRELTGETVGEVRAVADMHQRKAEMAKHSDAFIALPGGYGTLEELLEVITWAQLGIHDKPVGLLNVDGYYNSLLSFIDKAVEEGFISPTAREIIVSAPTAKELVKKLEEYAPCHERVATKLCWEMERIGYSSEE | soluble
MEDFKKIVNNIRLKDTFDFKLAAFPNQNYDQLLPSQIYKNYYQGIEIQQHKYQNELDIKIINFLYPDGDFGSANKNGTLKLSLMLTDKKNNQVYYKLLEVSGFKSNPYGVDLEHHHHHH | not soluble
SSAKAQVNPAICRYPLGMSGGQIPDEDITASSQWSESTAAKYGRLDSEEGDGAWCPEIPVEPDDLKEFLQIDLHTLHFITLVGTQGRHAGGHGIEFAPMYKINYSRDGTRWISWRNRHGKQVLDGNSNPYDIFLKDLEPPIVARFVRFIPVTDHSMNVCMRVELYGCVWLDGLVSYNAPAGQQFVLPGGSIIYLNDSVYDGAVGYSMTEGLGQLTDGVSGLDDFTQTHEYHVWPGYDYVGWRNESATNGYIEIMFEFDRIRNFTTMKVHCNNMFAKGVKIFKEVQCYFRSEASEWEPNAISFPLVLDDVNPSARFVTVPLHHRMASAIKCQYHFADTWMMFSEITFQSDAAM | not soluble
MYKDLEGKVVVITGSSTGLGKSMAIRFATEKAKVVVNYRSKEDEANSVLEEIKKVGGEAIAVKGDVTVESDVINLVQSAIKEFGKLDVMINNAGLENPVSSHEMSLSDWNKVIDTNLTGAFLGSREAIKYFVENDIKGTVINMSSVHEKIPWPLFVHYAASKGGMKLMTETLALEYAPKGIRVNNIGPGAINTPINAEKFADPEQRADVESMIPMGYIGEPEEIAAVAAWLASSEASYVTGITLFADGGMTLYPSFQAGRG | soluble
MAHHHHHHMINSVYHSKKACVEALRAVERLQPSWWTPPCSEFLHRVEQTPTVTAQPNQKTLIVLEGIDGVGKSLVAQSLIEKLGDSAVLIRTPHPDLSGIRETFRAQTEETARAFYSAANYLAAWDAFHATKERKFVVFDRWWCSTCAMALANSCRLAALPAAGDAVYQWPQDLPPFQLGALLYVEEHIRQARIRQRAPEDAEERRLRAQQEMREVAMEAYRRFGLLNEVHVATYGVAVNRILALMTEKGLPHSATPFSAEELAALRQI | soluble
MGSDKIHHHHHHMKGGTSKFKTHTETLYKKKKWSSVSEKRPQKCPSQCLESKQPQVSVLGKRRRASQTPAQETLESEWPQKAKRKKRRREPQTPAQETLESEWPQKAKKKKRRGEPQTPTQESLESEQPPVSLLGKRRRESQTPAQENSESEQPRKAKRRRKKRKGSQQPTSSLLKTPETFLKAKKTTSAHKKKKNSVLEVDMETGIILVDKENMENLLETSRKDVDIVYVDMSKGQRSAKVRETGELPAAKPQEHGCRELLGDVRSRKKQKHLQKVAPWDVVQGSQPESISLPPSEPLSSEDLEGKSTEAAVFCKKKSKKNVFRSQELEPIPDSLDDSETISERLDSTHHGGAVGAGEECESTKESHSIKKKSKKKKHKSVALATSSDSASVTDSKAKNALVDSSEGSGAVREEDVDHRPAEAEAQACSTEKHREAMQRLEPTHEEESNSESASNSAARHISEDRRESDDSDVDLGSAVRQLREFIPDIQERAATTIRRMYRDDLGRFKEFKAQGVAIRFGKFSAKENKQIEKNVQDFLSLTGIESADKLLYTDRYPEEKTLITNLKRKHAFRLHIGKGIARPWKLVYYRAKKIFDVNNYKGRYNEEDTKKLKAYHSLHGNDWKKIGAMVARSSLSVALKFSQIGGTRNQGAWSKAETQRLIKAVEDVILKKMSPQELRELDSKLQEDPEGRLSIVREKLYKGISWVEVEARVETRNWMQCKSKWTEILTKRMTHGGFVYRGVNALQAKITLIERLYELNVNDANEIDWEDLASAIGDVPPPFVQAKFYKLKAACVPFWQKKTFPEIIDYLYKNSLPLLKEKLDKKMKKKDGQIQTPAAPKQDFLFKDIFHCDDDSDEGSPEEPSASDVQ | not soluble
MPRYLGLMSGTSLDGMDIVLIEQGDRTTLLASHYLPMPAGLREDILALCVPGPDEIARAAEVEQRWVALAAQGVRELLLQQQMSPDEVRAIGSHGQTIRHEPARHFTVQIGNPALLAELTGIDVVADFRRRDVAAGGQGAPLVPAFHQALFGDDDTSRAVLNIGGFSNVSLLSPGKPVRGFDCGPGNVLMDAWIHHQRGEHFDRDGAWAASGQVNHALLASLLADEFFAARGPKSTGRERFNLPWLQEHLARHPALPAADIQATLLELSARSISESLLDAQPDCEEVLVCGGGAFNTALMKRLAMLMPEARVASTDEYGIPPAWMEGMAFAWLAHRFLERLPGNCPDVTGALGPRTLGALYPA | not soluble
SNPTITRIELSYQDSSIANGTSTTLEVTAIFDNGTNQNITDSTSIVPDSQSVVTIEGNRVRGIASGSSIIKAEYNGLYSEQKITVTPAILNSIQVTSLESGILPKGTNRQFSAIGIFSDGSHQDISNEPLIVWSSSNPDLVRVDDSGLASGINLGTAHIRASFQSKQGAEEMTVGDAVLSQIQVTSNDLNIPLGKKQKLTATGIYSDNSNRDISSSVIWNSSNSTIANIQNNGILETADTGIVTVSASSENIIGSVKLIVTPAALVSISVSPTNSTVAKGLQENFKATGIFTDNSNSDITDQVTWDSSNTDILSISNASDSHGLASTLNQGNVKVTASIGGIQGSTDFKVTQAALTSIEVSPTRTSIAKGLTQKFTAIGIFTDNSKKDITDQVTWNSSSAIVSVSNLDNNKGLGKTNSVGNTTITATLGKVSGNTWFTVVPAV | not soluble
MIQAVLFDLDGTLADTALDLGGALNTLLARHGLPAKSMDEIRTQASHGAAGLIKLGAGITPDHPDYARWRTEYLDEYDSRYAQDTTLF | not soluble
MGSDKIHHHHHHMPQEPESGADLPSDRTAVFPTPEGPPLPKQVTLQAAKWLVMLQAPNTTQATRAKWQQWRDVHPDHERAWQHIEASATQMRAMHSPLAHGTLIRDDTEKRHARRRAIKLLGVIAFTGTSTWLLRDNPVWREWHADHRTATSERRTIVLADGTRIMLNTASIIDVHFDNAIRLVTLIRGEILVTTAPDSASGTGQPFIVETDQGRLRALGTRFAVRQRENDSHVSLFEGMVEIRPADASDQARVLQAGEQISFTRNAIETPQTIDTHAASWVTGMLVVQEMPLTDFIDELARYRPGYLSCDPELSHLKVSGIYPIEDTERVLDMLLHVHPIEIYSLTRYWVAIRARGDR | not soluble
MNANYVSKKPYIVTIACTKGGSAKSTNAANIGAFCADHGLRTLLIDTDTQPTLSSYYSLAKTAPGGIYEFLLQRDVEPSHIVSQTSIKNLDLIQSNDPSNNVSHMLRNAPDGSIRFSHLIKSINNYDVIVIDTRGTRDITVDMSVLAADILFCPILPQILSAKEFIRGTIGMYQDLQTFESFGFKLPPLKAIANGVDNTNDVKFVMQKLHTLFANTFDESKTLLDFSIPYHVAYREAVTYALPVYRHSAVEYPVMQQLCCLLLPQFKENFEKPMQRGLEHHHHHH | soluble
MAHHHHHHMLPNHSCKGFVDAQGRVFVDGREYPMASGIVATEDVIQANIKAMANTIAKDYKSLSHRDVRLSPGTAATAEAAEAPISYDNPLIIISVLKGSYIFTSDFIRYLGDCGLPHVVDFVRLASYNSDTTSTGQISMLAGLRFENLRGKHVLIVEDVCDSGRTLRFLRDYIMEKFQPKSVKTLVMVNKEQAARKLDFDPEYFCLAGPNKYIVGYGFEVNDRYRDLRHIFILRDGEATRYPAKL | soluble
MSLDHPPLCVLLVDDDSLVLDSTTLLLEDLGHRVIRAASGAQALQCLEQHRDIQLMISDMAMPHMDGRQLAEAVRRLHPQLPIILASGYAQRQDGPVPELPRIFKPFSQAQLRDALAQVLAQSAEGHHHHHH | soluble
MMHYDGMYYINEEEVRSNLTMKDTIDAIREAFEEYRAGRASSNTRVRTFSEGSVLNTMPASMEKYHILGHKTYSASRNGARFVVTLFDSRNNDLIAIVEANRLGQMRTGAVTAYATSILHPHVENFTIIGSGFQAETQLEGMITVSHPQSIRVYSRNYDHAKDFASRMSKQFGVDIRPVDNAEAALSDADTVSSITNSTSPVILRKYLGDEYHVNLAGSNYMNRREAEYEVLHDADLVVTEHYDQSMVESAEISEYVKFGGKPVELREIAGRYGEFSGLRRTVFKSMGIGLEDIATAYRVLRNLGIA | soluble
MMNYELMTTQNAPVKMWTKGVPVEDDARQQLINTAKMPFIFKHIAVMPDVHLGKGSTIGSVIPTKGAIIPAAVGVDIGCGMNALRTSLTAADLPENLADLRSAIEAAVPHGRTTGRGHRDVGAWGNPPANVNEKWAQLEAGYQWLTQKYPRFLNTNNYKHLGTLGTGNHFIEICLDETDRVWIMLHSGSRGIGNAIGTYFIGLAQQEMQEQLETLPSRDLAYFNEGSEYFDDYLKAVHWAQQFASLNREAMMENALAALQRCVEKPSALDMDEINCHHNYVQKEQHFGEEIYVTRKGAVSARRGEFGIIPGSMGAKSFIVRGLGNEESFCSCSHGAGRVMSRTKAKKLFSVDDQIRATAHVECRKDADVIDEIPMAYKDIDAVMAAQSDLVEIMYALRQVVCVKGLEHHHHHH | not soluble
MKQYIPFIRKDPVVPVIRLQGVIASGPRGGLSDQGLAAVIEKAFRRGKPAGVALVINSPGGSPVQSSLIAARIRRLASEKGVRVHAFVEDVAASGGYWLACAGDEIWVDESSLVGSIGVIFSSFGFHEFMARNGIERRVHTAGRSKSLADPFLPEKPEDVERLKALQEPIHRAFIEYVKRHRGTRLDLNADLFNADVWTGQEAVRLGLADGVAHLVPKLQENYGDKVRLVPYGQRRPFLQRLGMSLAGQALAEVENRALWARYGLLEHHHHHH | not soluble
